Here are results for three molecules from patent US20230312755A1 (ANGITIA, published 2023).

The target in test [1] is T1, human DKK1 (human, UniProt O94907 32-266).
T1 construct: Analyte in BLI and the protein added in the reporter assay; also called hDKK1; Dickkopf-1
T1 sequence (looked up): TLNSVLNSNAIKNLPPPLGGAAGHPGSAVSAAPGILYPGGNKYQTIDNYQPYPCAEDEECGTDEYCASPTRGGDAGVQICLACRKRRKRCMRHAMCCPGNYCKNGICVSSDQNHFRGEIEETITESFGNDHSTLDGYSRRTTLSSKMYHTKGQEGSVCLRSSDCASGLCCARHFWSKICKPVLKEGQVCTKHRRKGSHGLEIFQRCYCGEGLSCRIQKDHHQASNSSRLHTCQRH
Description: BLI (Gator), antibody on anti-hFc biosensor, antigen as analyte, 1:1 global fit. The method, then: (§1) Binding kinetics and affinities of anti-Sclerostin×anti-DKK1 and anti-Sclerostin×anti-RANKL bispecific antibodies were measured with Gator (Probe Life) bio-layer interferometry (BLI). Antibodies were immobilized on an anti-hFc biosensor, using a 5 μg/ml solution. Serial dilutions of sclerostin (from 1 μg/ml), DKK1 (from 2 μg/ml), or RANKL (from 4 μg/ml) by two folds in kinetics buffer (PBS, pH 7.4, 0.05% Tween-20, 0.2% BSA) were used as the analytes. Affinity (KD) and kinetic parameters (Kₒₙ and Koff) were calculated from a global fit (1:1) of the data using the Gator software.

Test [2] deals with T2, human Sclerostin (human, UniProt Q9BQB4 24-213).
T2 construct: Analyte of the BLI assays and the protein added in the reporter assays; also called hSclerostin; SOST
T2 sequence: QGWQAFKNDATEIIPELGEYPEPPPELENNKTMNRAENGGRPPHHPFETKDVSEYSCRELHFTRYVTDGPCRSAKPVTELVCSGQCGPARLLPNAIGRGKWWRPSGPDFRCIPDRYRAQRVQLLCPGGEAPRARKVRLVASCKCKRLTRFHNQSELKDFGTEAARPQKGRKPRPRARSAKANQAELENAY
The description is as above. The method, then: as §1

Test [3] has as its target T1, human DKK1. Briefly: cell-based or functional assay.
For test [4], the target named is T2, human Sclerostin. Briefly: cell-based or functional assay.
Test [5] addresses T1, human DKK1. Description: BLI (Gator), antibody on anti-hFc biosensor, antigen as analyte; koff at LOD, KD estimated. Here is the method: as §1
For test [6], the target named is T2, human Sclerostin. The test is described as above. The method, then:
as §1

Test [7] has as its target T2, human Sclerostin. Description: cell-based or functional assay. This is another data set of the same source.
Test [8] concerns the target T3, cynomolgus monkey Sclerostin (cynomolgus monkey, UniProt Q9BG78 24-213 (Chlorocebus aethiops entry)).
T3 chain: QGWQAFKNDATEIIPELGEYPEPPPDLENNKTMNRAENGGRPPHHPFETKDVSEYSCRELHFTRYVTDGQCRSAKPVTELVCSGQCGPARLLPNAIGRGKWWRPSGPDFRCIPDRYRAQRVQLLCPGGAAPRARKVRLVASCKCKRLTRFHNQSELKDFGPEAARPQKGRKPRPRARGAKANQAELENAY
Briefly: BLI (Gator), antibody on anti-hFc biosensor, Sclerostin as analyte, 1:1 global fit. The method, then:
(§2) The binding affinity of humanized anti-Sclerostin antibodies to human and cynomolgus monkey Sclerostin were determined with bio-layer interferometry using a Gator instrument (Probe Life). Antibodies were immobilized on an anti-hFc biosensor, using a […]. Serial dilutions of human Sclerostin and cynomolgus monkey Sclerostin from 4 μg/ml by two folds in kinetics buffer (PBS, pH 7.4, 0.05% Tween-20, 0.2% BSA, 10 μM biotin) were used as the analytes. Affinity (KD) and kinetic parameters (Kₒₙ and Koff) were calculated from a global fit (1:1) of the data using the Gator software.

The target in test [9] is T2, human Sclerostin. The description is as above. Here is the method:
as §2

Test [10] addresses T1, human DKK1. Description: BLI (Gator), hAb-2 on anti-hFc probe already holding hSclerostin, hDKK1 as second analyte. Here is the method: The bsAb constructs (5 μg/ml) were captured to the anti-hFc HFC probe, then sequentially adding hSclerostin (2 μg/ml) and hDKK1 (2 μg/ml) in kinetics buffer (PBS, pH 7.4, 0.05% Tween-20, 0.2% BSA).

B1: BAP0061 (bispecific antibody, human IgG4 S228P, kappa)
heavy 1: EVQLVQSGAEVKKPGASVKVSCKASGYTFTDYEIHWVRQAPGKGLEWMGAIDPETGGTAYNQKFKGRVTMTTDTSTSTAYMELRSLRSDDTAVYYCYSYDYVTYWGQGTTVTVSSASTKGPSVFPLAPCSRSTSESTAALGCLVKDYFPEPVTVSWNSGALTSGVHTFPAVLQSSGLYSLSSVVTVPSSSLGTKTYTCNVDHKPSNTKVDKRVESKYGPPCPPCPAPEFLGGPSVFLFPPKPKDTLMISRTPEVTCVVVDVSQEDPEVQFNWYVDGVEVHNAKTKPREEQFNSTYRVVSVLTVLHQDWLNGKEYKCKVSNKGLPSSIEKTISKAKGQPREPQVYTLPPSQEEMTKNQVSLSCAVKGFYPSDIAVEWESNGQPENNYKTTPPVLDSDGSFFLVSRLTVDKSRWQEGNVFSCSVMHEALHNRFTQKSLSLSLGK
light 1: DIQMTQSPSSLSASVGDRVTITCRSSQSLLYSDGRTYLNWYQQKPGKSPKRLIYLVSKLDSGVPDRFSGSGSGTDFTLTISSLQPEDFATYYCWQGTHLPHTFGGGTKVEIKRTVAAPSVFIFPPSDEQLKSGTASVVCLLNNFYPREAKVQWKVDNALQSGNSQESVTEQDSKDSTYSLSSTLTLSKADYEKHKVYACEVTHQGLSSPVTKSFNRGEC
heavy 2: not shown
light 2: DIRMTQSPFSLSASVGDRVTITCLASEDIYSDLAWYQQKPAKAPKLFIYNANSLQNGVPSRFSGSGSGTDYTLTISSLQPEDFATYYCQQYNNYPPTFGGGTKVEIKRTVAAPSVFICPPSDEQLKSGTASVVCLLNNFYPREAKVQWKVDNALQSGNSQESVTEQDSKDSTYSLSSTLTLSKADYEKHKVYACEVTHQGLSSPVTKSFNRGES
notes: Asymmetric knob-into-hole full length antibody: first Fab (hAb-2) recognizes Sclerostin, second Fab (11H10) recognizes DKK1
The term kon denotes a measure of how fast the partners come together. The Kd is the equilibrium constant for the complex coming apart. Take B1: the kon in test [1] amounted to 330000 M⁻¹ s⁻¹; in test [2], 2.62e+06 M⁻¹ s⁻¹. Also, in test [3], the “EC50, DKK1 neutralization activity in HEK293/TCF/LEF/Wnt1 reporter gene assay” value turned out to be 41.4 nM. Further, in test [4], the “EC50, Sclerostin neutralization activity in HEK293/TCF/LEF/Wnt1 reporter gene assay” value was 63.8 nM. Further, the dissociation constant Kd in test [5] and in test [6] was ~0.01 nM in each case.

B2: BAP0063 (bispecific antibody, human IgG4 S228P, kappa)
heavy 1: EVQLVQSGAEVKKPGASVKVSCKASGYTFTDYEIHWVRQAPGKGLEWMGAIDPETGGTAYNQKFKGRVTMTTDTSTSTAYMELRSLRSDDTAVYYCYSYDYVTYWGQGTTVTVSSASTKGPSVFPLAPCSRSTSESTAALGCLVKDYFPEPVTVSWNSGALTSGVHTFPAVLQSSGLYSLSSVVTVPSSSLGTKTYTCNVDHKPSNTKVDKRVESKYGPPCPPCPAPEFLGGPSVFLFPPKPKDTLMISRTPEVTCVVVDVSQEDPEVQFNWYVDGVEVHNAKTKPREEQFNSTYRVVSVLTVLHQDWLNGKEYKCKVSNKGLPSSIEKTISKAKGQPREPQVYTLPPSQEEMTKNQVSLSCAVKGFYPSDIAVEWESNGQPENNYKTTPPVLDSDGSFFLVSRLTVDKSRWQEGNVFSCSVMHEALHNRFTQKSLSLSLGK
light 1: DIQMTQSPSSLSASVGDRVTITCRSSQSLLYSDGRTYLNWYQQKPGKSPKRLIYLVSKLDSGVPDRFSGSGSGTDFTLTISSLQPEDFATYYCWQGTHLPHTFGGGTKVEIKRTVAAPSVFIFPPSDEQLKSGTASVVCLLNNFYPREAKVQWKVDNALQSGNSQESVTEQDSKDSTYSLSSTLTLSKADYEKHKVYACEVTHQGLSSPVTKSFNRGEC
heavy 2: not shown
light 2: DIRMTQSPFSLSASVGDRVTITCLASEDIYSDLAWYQQKPAKAPKLFIYNANSLQNGVPSRFSGSGSGTDYTLTISSLQPEDFATYYCQQYNNYPPTFGGGTKVEIKRTVAAPSVFIFPPSDEQLKSGTASVVCLLNNFYPREAKVQWKVDNALQSGNSCESVTEQDSKDSTYSLSSTLTLSKADYEKHKVYACEVTHQGLSSPVTKSFNRGES
notes: as for B1
Turning to B2, the kon in test [1] is 129000 M⁻¹ s⁻¹; in [2], 2.59e+06 M⁻¹ s⁻¹. Besides, the “EC50, DKK1 neutralization activity in HEK293/TCF/LEF/Wnt1 reporter gene assay” value in test [3] amounted to 44.7 nM. The “EC50, Sclerostin neutralization activity in HEK293/TCF/LEF/Wnt1 reporter gene assay” value in test [4] worked out at 65.4 nM. The dissociation constant (Kd) in test [5] and in test [6] was ~0.01 nM in each case.

B3: hAb-2 (antibody, V domains shown)
VH: EVQLVQSGAEVKKPGASVKVSCKASGYTFTDYEIHWVRQAPGKGLEWMGAIDPETGGTAYNQKFKGRVTMTTDTSTSTAYMELRSLRSDDTAVYYCYSYDYVTYWGQGTTVTVSS
VL: DIQMTQSPSSLSASVGDRVTITCRSSQSLLYSDGRTYLNWYQQKPGKSPKRLIYLVSKLDSGVPDRFSGSGSGTDFTLTISSLQPEDFATYYCWQGTHLPHTFGGGTKVEIK
notes: Humanized 93B1B7; also called humanized anti-Sclerostin antibody hAb-2
The koff is the first-order rate constant of dissociation. Take B3: the “EC50, Sclerostin-neutralisation activity in HEK293/TCF/LEF/Wnt1 cells (luciferase reporter)” value in [7] was 14.9 nM. Moreover, in test [8], the Kd was 0.055 nM, the koff stood at 8.06e-05 s⁻¹ and the kon was 1.54e+06 M⁻¹ s⁻¹. In test [9], this molecule returned a Kd of 0.24 nM, a koff of 0.0002 s⁻¹ and an association rate constant (kon) of 780000 M⁻¹ s⁻¹. The binding result in [10] is “no binding (tested: 2 µg/ml)”.
